What is called Kd is the constant that tells how readily two partners part at equilibrium. For orientation: EC90 means the concentration needed for an effect of 90%. A lower EC90 goes with greater potency.

We go through four molecules from article PMC9337824.

Assay [1] has as its target Omalizumab. Briefly: SPR; IgG Fc antibodies covalently coupled to the sensor chip captured the anti-IgE mAbs (ligelizumab: Creative Biolabs, TAB755); Expi293-expressed human full-length IgE injected at 0.312–50 nM.
In assay [2] the target is Ligelizumab. The description is as above.
Assay [3] has as its target CD23 on SKW6.4 B lymphoma cells (human (endogenous in SKW6.4)) (UniProt P06734). Briefly: flow cytometry on cells; Alexa Fluor 647-conjugated UB-221, ligelizumab (UBP lot) or omalizumab at 0 to 10 μg/mL mixed with an equal volume of 15 μg/mL human IgE in PBS, 1 hour at room temperature; added to CD23^+ SKW6.4 cells for 30 minutes at 4°C.
UniProt P06734, sequence (P06734 whole entry): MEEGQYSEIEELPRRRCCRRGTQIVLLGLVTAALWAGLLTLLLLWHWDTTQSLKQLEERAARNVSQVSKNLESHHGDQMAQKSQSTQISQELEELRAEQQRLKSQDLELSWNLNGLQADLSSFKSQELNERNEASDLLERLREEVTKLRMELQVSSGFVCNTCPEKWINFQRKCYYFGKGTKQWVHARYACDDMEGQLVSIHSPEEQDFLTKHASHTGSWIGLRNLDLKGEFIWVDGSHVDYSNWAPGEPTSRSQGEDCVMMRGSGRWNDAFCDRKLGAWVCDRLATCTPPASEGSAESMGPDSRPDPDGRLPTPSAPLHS
Assay [4] deals with CD23-bound IgE on SKW6.4 cells (human | human (endogenous in SKW6.4)) (UniProt P01854). Briefly: flow cytometry on cells; CD23^+ SKW6.4 cells with 15 μg/mL human IgE for 30 minutes at 4°C, washed, then UB-221, ligelizumab (UBP lot) or omalizumab at 0–10 μg/mL in PBS for 30 minutes at 4°C; Brilliant Violet 421 anti-human IgG Fc. In general terms: A flow cytometer gives signals particle by particle.

For assay [5], the target named is IgE in sera of patients with atopic dermatitis (human (endogenous in patients' sera)). In words: ELISA; sera of AD patients with low basal IgE (<4,800 ng/mL, n = 9) incubated 1 hour at room temperature with mAb at 0–4,000 ng/mL (ligelizumab: Creative Biolabs TAB-755); remaining free IgE measured on plates coated with FcεRIα-Fcγ.
IgE in sera of patients with atopic dermatitis (human (endogenous in patients' sera)), sequence (P01854 whole entry): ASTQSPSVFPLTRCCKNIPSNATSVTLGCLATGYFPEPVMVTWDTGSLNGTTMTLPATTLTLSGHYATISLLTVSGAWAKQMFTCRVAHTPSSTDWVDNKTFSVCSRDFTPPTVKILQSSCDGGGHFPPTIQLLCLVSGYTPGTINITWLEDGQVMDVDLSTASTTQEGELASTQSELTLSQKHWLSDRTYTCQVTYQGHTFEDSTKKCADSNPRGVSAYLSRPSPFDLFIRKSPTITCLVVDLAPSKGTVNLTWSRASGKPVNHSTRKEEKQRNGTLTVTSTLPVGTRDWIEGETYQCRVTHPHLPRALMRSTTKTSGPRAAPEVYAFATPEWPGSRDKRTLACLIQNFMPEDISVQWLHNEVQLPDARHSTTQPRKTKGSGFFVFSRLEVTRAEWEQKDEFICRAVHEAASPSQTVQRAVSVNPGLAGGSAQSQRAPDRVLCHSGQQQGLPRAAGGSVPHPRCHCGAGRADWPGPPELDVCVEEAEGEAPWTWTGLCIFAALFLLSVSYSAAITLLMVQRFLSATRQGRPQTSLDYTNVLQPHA
Assay [6] shares this target. Briefly: ELISA; sera of AD patients with high basal IgE (>24,000 ng/mL, n = 10) incubated 1 hour at room temperature with mAb at 0–75,000 ng/mL; remaining free IgE measured on plates coated with FcεRIα-Fcγ. On the technique in general: An ELISA detects its analyte on a solid surface through an enzyme-linked reagent.

In the case of “Expi293-expressed human full-length IgE (from UniProt P01854 1-546) (natural protein)”, the values for the Kd in assay [1] and in assay [2] were 0.23 nM and 0.016 nM, respectively.
In assay [3], “Preformed UB-221–IgE complex (from UniProt P01854 1-546)” gave a maximum binding MFI of 1280 MFI.
Take “Preformed ligelizumab-IgE complex (from UniProt P01854 1-546)”: the maximum binding MFI in assay [3] was 191 MFI.

B1: Ligelizumab (antibody, V domains shown)
VH: QVQLVQSGAEVMKPGSSVKVSCKASGYTFSWYWLEWVRQAPGHGLEWMGEIDPGTFTTNYNEKFKARVTFTADTSTSTAYMELSSLRSEDTAVYYCARFSHFSGSNYDYFDYWGQGTLVTVSS
VL: EIVMTQSPATLSVSPGERATLSCRASQSIGTNIHWYQQKPGQAPRLLIYYASESISGIPARFSGSGSGTEFTLTISSLQSEDFAVYYCQQSWSWPTTFGGGTKVEIK
As for B1, the maximum binding MFI in assay [4] worked out at 503 MFI. Also, the EC90 was 1 µg/mL in assay [5] and more than 25 µg/mL in assay [6].
